Experimental findings from paper doi:10.1101/2022.07.10.499479 are described below.

Where two headings read alike, the source gives them in different places.

Experiment [1] addresses membrane-anchored iLID (improved Light Induced Dimerization protein with an N-terminal TatA-derived transmembrane helix) (Avena sativa).
The target is the same in experiment [2]. As to the kind of experiment: 3D single-molecule tracking in live cells.
Experiment [3] shares this target. Put plainly: 3D single-molecule tracking in live cells. This is another data set of the same source.
The target is the same in experiment [4]. As to the kind of experiment: 3D single-molecule tracking in live cells. The source holds these as a separate data set.
Experiment [5] shares this target. This is another data set of the same source.
The target is the same in experiment [6]. Put plainly: 3D single-molecule tracking in live cells. This is another data set of the same source.

Regarding SspB_(micro)-Halo labelled with JFX549, the median bound time t (bound) in experiment [1] came out at 300 ms. The fraction iLID-associated in experiment [2] amounted to 48%. In addition, in experiment [3], the fraction iLID-associated was 31%. Besides, in experiment [4], the Kd stood at 510 nM, the fold increase in affinity upon 488 nm illumination against before was found to be 2 fold and the fraction iLID-associated was determined as 45%.
In experiment [1], SspB_(milli)-Halo labelled with JFX549 came in with a median bound time t (bound) of 175 ms. For the same substance, the values for the fraction iLID-associated in experiment [3] and in experiment [4] were 6% and 7%, respectively.
Turning to SspB_(nano)-Halo labelled with JFX549, the median bound time t (bound) in experiment [1] worked out at 350 ms. Also, in experiment [5], the fraction of molecules at the membrane was above 80%. For the same substance, the fraction slowly diffusing (iLID-associated) came to 48% in experiment [4] and 56% in experiment [6].
